The values that follow come from patent publication US20180362585A1 (Bicycle, published 2018).

Numbered stars: 1 amine (or outer) side, 2 acyl side, 3 side chain; on linkers, the order of the positions; unused ones are H or OH. Bridge positions count the residues as written; N and C are the ends. Ends that are not written are not given here. TBMB = c1c(C[*:1])cc(C[*:3])cc1C[*:2]

For the test, the target named is T1, human plasma Kallikrein (human, UniProt P03952 20-638).
T1 construct: also called hPK; human PK
T1 sequence (P03952 20-638 limits assumed): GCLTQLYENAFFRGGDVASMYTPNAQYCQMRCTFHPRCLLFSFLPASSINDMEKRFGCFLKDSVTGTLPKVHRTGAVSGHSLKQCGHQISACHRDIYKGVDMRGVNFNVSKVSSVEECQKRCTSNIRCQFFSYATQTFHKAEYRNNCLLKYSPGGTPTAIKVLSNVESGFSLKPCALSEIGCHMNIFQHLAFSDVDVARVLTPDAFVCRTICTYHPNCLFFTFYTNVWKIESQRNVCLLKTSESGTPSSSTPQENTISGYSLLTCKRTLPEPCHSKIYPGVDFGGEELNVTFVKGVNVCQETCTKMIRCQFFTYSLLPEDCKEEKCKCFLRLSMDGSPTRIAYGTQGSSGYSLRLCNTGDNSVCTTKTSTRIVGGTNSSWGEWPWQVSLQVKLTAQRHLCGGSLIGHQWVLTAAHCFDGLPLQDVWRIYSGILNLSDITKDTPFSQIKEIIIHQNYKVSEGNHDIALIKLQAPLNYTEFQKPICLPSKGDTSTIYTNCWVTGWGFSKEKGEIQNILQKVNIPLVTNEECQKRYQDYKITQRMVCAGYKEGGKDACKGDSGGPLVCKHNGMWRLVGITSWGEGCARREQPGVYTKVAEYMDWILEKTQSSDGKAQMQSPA
The test can be described thus: phage binding assay.

In the case of CTWPARCLHQDLC (linker 1-7-13 via TBMB, on phage), the “BINDING ASSAY SIGNAL” value came to 73.

Turning to CSWPARCTHTELC (linker 1-7-13 via TBMB, on phage), the “BINDING ASSAY SIGNAL” value turned out to be 69.

For CSWPARCLHTELC (linker 1-7-13 via TBMB, on phage), the “BINDING ASSAY SIGNAL” value was determined as 68.

Regarding CAWPARCLHADMC (linker 1-7-13 via TBMB, on phage), the “BINDING ASSAY SIGNAL” value was found to be 66.

Regarding CQWPARCMHQELC (linker 1-7-13 via TBMB (inferred), on phage), the “BINDING ASSAY SIGNAL” value is 73.

Regarding CDWPARCMHQEFC (linker 1-7-13 via TBMB, on phage), the “BINDING ASSAY SIGNAL” value was 63.

Regarding CAWPARCTHADLC (linker 1-7-13 via TBMB, on phage), the “BINDING ASSAY SIGNAL” value worked out at 79.

In the case of CSWPARCIHQDLC (linker 1-7-13 via TBMB, on phage), the “BINDING ASSAY SIGNAL” value came out at 68.

Regarding CAWPARCTHTDFC (linker 1-7-13 via TBMB, on phage), the “BINDING ASSAY SIGNAL” value amounted to 80.

Take CSWPARCTHADLC (linker 1-7-13 via TBMB, on phage): the “BINDING ASSAY SIGNAL” value was determined as 100.

Consider CVWPARCTHQDLC (linker 1-7-13 via TBMB, on phage), for which the “BINDING ASSAY SIGNAL” value stood at 71.

Take CAWPARCTHYDLC (linker 1-7-13 via TBMB, on phage): the “BINDING ASSAY SIGNAL” value was 70.

Consider CAWPARCTHVDLC (linker 1-7-13 via TBMB, on phage), for which the “BINDING ASSAY SIGNAL” value is 82.

In the case of CPWPARCTHQDLC (linker 1-7-13 via TBMB (inferred), on phage), the “BINDING ASSAY SIGNAL” value is 107.

For the molecule CTWPARCTHTDMC (linker 1-7-13 via TBMB, on phage), the “BINDING ASSAY SIGNAL” value was determined as 67.

For CPWPARCLHTDLC (linker 1-7-13 via TBMB (inferred), on phage), the “BINDING ASSAY SIGNAL” value was 58.

Turning to CRWPARCTHQDLC (linker 1-7-13 via TBMB (inferred), on phage), the “BINDING ASSAY SIGNAL” value stood at 73.

Regarding CAWPARCTHTDLC (linker 1-7-13 via TBMB, on phage), the “BINDING ASSAY SIGNAL” value is 92.

CSWPARCTHSDLC (linker 1-7-13 via TBMB, on phage): the “BINDING ASSAY SIGNAL” value stood at 59.

For CTWPARCTHTDLC (linker 1-7-13 via TBMB, on phage), the “BINDING ASSAY SIGNAL” value came out at 88.

For the molecule CHWPARCTHQDLC (linker 1-7-13 via TBMB, on phage), the “BINDING ASSAY SIGNAL” value turned out to be 110.

CPWPARCTHQNLC (linker 1-7-13 via TBMB (inferred), on phage): the “BINDING ASSAY SIGNAL” value turned out to be 69.

Turning to CQWPARCTHSDLC (linker 1-7-13 via TBMB (inferred), on phage), the “BINDING ASSAY SIGNAL” value was found to be 74.

Regarding CLWPARCTHADLC (linker 1-7-13 via TBMB, on phage), the “BINDING ASSAY SIGNAL” value is 74.

For CAWPARCTHTHLC (linker 1-7-13 via TBMB, on phage), the “BINDING ASSAY SIGNAL” value is 66.

In the case of CHWPARCTHQELC (linker 1-7-13 via TBMB, on phage), the “BINDING ASSAY SIGNAL” value was 85.

As for CPWPARCTHTDLC (linker 1-7-13 via TBMB (inferred), on phage), the “BINDING ASSAY SIGNAL” value was 70.

Consider CEWPARCLHTDLC (linker 1-7-13 via TBMB, on phage), for which the “BINDING ASSAY SIGNAL” value was determined as 60.

Consider CNWPARCTHQDLC (linker 1-7-13 via TBMB (inferred), on phage), for which the “BINDING ASSAY SIGNAL” value came out at 116.

Regarding CHWPARCMHQDLC (linker 1-7-13 via TBMB, on phage), the “BINDING ASSAY SIGNAL” value worked out at 71.

As for CSWPARCTHSHLC (linker 1-7-13 via TBMB, on phage), the “BINDING ASSAY SIGNAL” value is 72.

With CTWPARCTHADLC (linker 1-7-13 via TBMB, on phage), the “BINDING ASSAY SIGNAL” value was 71.

As for CLWPARCTHQDLC (linker 1-7-13 via TBMB, on phage), the “BINDING ASSAY SIGNAL” value is 90.

For CRWPARCTHTDLC (linker 1-7-13 via TBMB (inferred), on phage), the “BINDING ASSAY SIGNAL” value turned out to be 59.

With CMWPARCMHQDLC (linker 1-7-13 via TBMB (inferred), on phage), the “BINDING ASSAY SIGNAL” value stood at 79.

CAWPARCMHDDLC (linker 1-7-13 via TBMB, on phage): the “BINDING ASSAY SIGNAL” value turned out to be 69.

As to CQWPARCMHQDMC (linker 1-7-13 via TBMB (inferred), on phage), the “BINDING ASSAY SIGNAL” value was 75.

CAWPARCLHQDWC (linker 1-7-13 via TBMB, on phage): the “BINDING ASSAY SIGNAL” value is 63.
